From the domain aggregation screens of Martell et al. (2025)

Assay: soluble fraction after stress (log2 fold change); higher = more stays soluble; pooled small domains, quantitative proteomics
Settings: stress: 75 degC
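Also: 20 min heating vs room temperature control held 20 min.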

Row | Sequence | soluble fraction (log2)
1 | HMGESYQIKDGELLVDIAQRVKPAGMTLRQTINALVAANPRAFRNGNPDLMYRGATLTIPDGDTLRRLAH | -0.0841
2 | HMGEVQALIPGLVSKLFVVEGESVKIGQKLIILEAMKMENEIASPINGTIKKIYIKSGDKIDKGSIIMEIT | -3.41
3 | HMGEVVSAPMPGTILSIKVSQGQTVKRGQVLLILEAMKMENEIVAPRDGVVVQISTTQGASVETGAPLVVL | -1.1
4 | HMGEVYPSDIVEKMKQANLHILEGTLYPLLTRLKNAGLLNYRWVESVTGPPRKYFVMTEEGKAAF | 0.13
5 | HMGEWHQMLRSWGETELKNGRQNILDEAVPAFERAMIETALAHTSGRKKDAALLLGWGRNTLTRKLQEHSI | -0.169
6 | HMGEYGVLWYLLTKKEAVSAGELKEKLHVVPGRMTDILTALEKKGLIIRQKNKTDKRVVDVVLTKEGEKEA | -0.731
7 | HMGFAEFWLAYPKKVGKGEAERKWKTLKPDAGAVLSAVKRQSASEQWRKDGGRYIPNPATWLHQRRWE | 0.0452
8 | HMGFALLIAIERTGNTTYFVKLTLIKKGSDSDVLKDSFSVSQGDLVGTATYDSVIANRIREKTAAMWQKAT | -2.76
9 | HMGFDTSMNKYTIDDLLKLLELGSNPSQAEIVNKITNFNTIFVDNSGVIQFLNNIQDKLLDNFK | -0.734
10 | HMGFDTVVEKVLGLITSRPMTSRDIQMTLGRSREHTSRLMNRLYKEGLVDRNTSSKPFSYIITEKGREKI | -0.429
11 | HMGFPAPFDGKAVAELRRRLGLTRRGLAEELSVSPSTVDKWEQGDVALRSPALTILKILWHQGLKALPP | -1.78
12 | HMGFSDDEHNALADADLKKALEVTTNKSETQYNIAKLIYSYIISLGDKKPYGDWSYDKALSIIHDA | -0.0187
13 | HMGGAVQIAEQIAARIKDGALRPGELLPPVRQLAAELEVNPNTVASAYARLRDAGLVATRGRAGTVVLEPP | -0.421
14 | HMGGAYATVKLSSSSSQLNVRASASTASRVVARLSHGFRVEVLGVSGDWVKIRALGVEGYVARAYLALEGE | -3.07
15 | HMGGEAEVLQSIDEGREVEVRSVAADGSAEVIYRGARWRARAAVGSLAAGRWTIGRVDGTELVLEK | -0.0609
16 | HMGGEEKALLFGDVDIREAGEITQRLEQAEIPYELRGDGSSIFVPRSRVMEARMMISADGLL | -0.0934
17 | HMGGEKLPAPVAGTLLRYSVAEGARVSEGQTVIILESMKMELEINTPKAGVIHFLAAVGAQVAEGDTLAEI | -3.46
18 | HMGGGTPEERLATLAAIAERQEMLLERLGPNNPLVSLGQYSRTLSRMVQLAGFKDASQYFNELPLDFQMPE | -0.408
19 | HMGGHLAYGFSRRFGLLIDEQQGEPVIIARPDYSPVHYAEARRIVGQPAALRVVDEQAFNQLLQSQQESGA | -0.512
20 | HMGGLENNLKQARNRVGLTQSELARQAGISRQAYSSLESGAANPSTEVALRLAQALSERVESLFYLPE | -0.117
21 | HMGGNVYAYRLTASVKSGEQIPANKIEKVKMLSSDLPTNYVPDTVNVTAYKSKLDLQAGTILSTSLLYEN | -0.591
22 | HMGGPTARQMEVLSLIAQGLPNKRIADELGIAERTVKLHITALLDSLGARNRTHLLVVARERGM | -2.16
23 | HMGGQKTREAIFDLIMTNSKITSAQIAEILGIHRSGVARHLKKLQEEGLIKREGPDNGGQWIVIK | -0.473
24 | HMGGQYQVRPGETLNQIAARVRPSNMSLSETQKAIIQANPDIFKNGNPNLIFAGDILRIPTGNQI | 0.466
25 | HMGGTTLIAKQATVTGDIQFSSNLDIEGRVVGAISVEPGKEAMLHVVEGGSVEGEIRVPSAVINGKVTGDI | 0.0791
26 | HMGGVEWLTHPIGPRDSLQVLARAGLEARPTSDGDYEIYGQERWPQRDQARLMGWLRRFGQWVWQALYDK | -0.569
27 | HMGHEALSSKLDEIQGVGKEKRSLLLDHFKTFERIKNASMEELEAVPSLGKNTAKAVFRFFHS | -0.0805

Row | Sequence | soluble fraction (log2)
28 | HMGHLTWTVTGIGHERRARTVAEQMSSVFGVLEARASSAGTVYLEFEREKIDEGGLEASLKRMGVTRVV | -2.02
29 | HMGIAFDYDAGRFDQVPPNLVEKWQQAYPAVDVLSELRRMEAWASANPVNRKSNWQRFIVNWLTRAQDRAG | -0.859
30 | HMGIAKYRQVTEWIQNRIATGELNRGDQIESENDISRTFGISRQTVRHALGLLEQQGILTRIQGRGTFVRD | -1.45
31 | HMGIFDIIQEINRQGVTVLLIEQNANMALKIADVGYVLETGRISLTGSGRELLANEAVKKAYL | -1.29
32 | HMGIKYTNQRVEILNFLKDNLSHPTVDDVYEGVKKKLTRISKATVYQNLKFLASKGLIQEVNIKGVSRFEP | -1.98
33 | HMGIRQGKVTSTFVNVRSGASTANAKVGELHKGDVVSLIEKVANFWRIGPGQFVSADYIQVLAS | -2.07
34 | HMGIRYQLADDVTDEQITAMTGKKAKIAAAIKAAGSAVSKMNVAGEMGYDKQNPINKDFMELVDAGIIVPS | -0.0507
35 | HMGISEKVINIIETYTMIARKKYPSVKSLAEHFNVSERTVHRYLEIIKMIDVVDYDREKKGYFFPYGDR | -3.08
36 | HMGISSESIKTFIREIVENEDPKAPLSDQTMVELLAERGIDISRRTVAKYRDEMNLPSSSKRKR | 0.87
37 | HMGKAMIDWEREQSILRILLRQKALTTEQAREVYQDGMREDLSALEMGVQRGYFTHEQLREATGGE | -0.278
38 | HMGKASNEVYEVISSKIRTGEWAPGYKLPSEPTLAEEFGVSRATVREALQELISRGRIKREQGRGTYVLH | -0.0316
39 | HMGKAVTLEEARAIIQAKVPGASPDMIQIWEEHGDGRGRYEGELSYNNMKYEFEMDPKTGIIFDWNA | -0.0538
40 | HMGKEDISQINKLYQNQILDYETYIDTLNSFNIDTKSKDFKNLLDLFIKKSISFETFNKGIINIHNKS | 0.328
41 | HMGKFMVQVGAFSRINGAEITRTKYDNLGTHKAIIKNLDGMNRVFLTGFLSEDEARDFIASSNLKGAFIIR | -2.13
42 | HMGKGVDKIMKMADDYSYGKIAGKTVDVMTAKLFQAAYNKAPQKAKDKVDKMNEKQLYIFMMNLWKRF | -0.768
43 | HMGKIILLFSDDDGVFDTALYRVRNYDGHRFAQSLGNAEMKWRHSEDEYFDFVLTSLREDGYDIEEIE | -1.18
44 | HMGKIINMSKVKQVLRLHTQGVSNRRIALDLGLYKGTVNSYIRKIKDHGYDIAEVLKLDDPVLESKLFA | -0.335
45 | HMGKKGPELNDNEKIIFNIISKENSMNLDDLKNRTELSNKQWDKAIKGLRSHELVNIEKIDDQLLIHL | 0.0386
46 | HMGKKQLVVDLQSIITDVPAALKSYGLEIGQDGKSLIYTYDTKGERTGITTLLNDLQKAGLQMTDMKTQQ | -0.0104
47 | HMGKPTPASQVATRWLAGDLPETLPVAGPAPSFETLARSVSTDFHPRAVLQELLRLGVAEEADGRVRLLK | -0.212
48 | HMGKQPLYEQLVDLLRDRIENDMETGELLPSERKLAHHFGLSRTTVRLAMDRLETLGLITRVHGKDTFVAE | -1.52
49 | HMGKREKTKVANRQAILVAARAVFAELGYEAATVRDIIRGTDLASGTFYNYFKSKEEVFDALADDGA | -1.73
50 | HMGKSETALELIKRGHRLIADDAVEITRIGSTLSGTAPELIRNYLEVRGVGVIDVEKLFGVGAVQDSTQI | 0.0405
51 | HMGKSPLDALSAREKEVLTYITRGVSINDIAAVLYLSPKTVSTHKTNLMQKLGIENNADLILFGVNHGLND | -1.51
52 | HMGLIAPMPGQIRSVAVSVGDVVKKGQTLLTMEAMKMEIRIQALKDGRVTALHAAQGQTVEGEQILIEVE | -2.32
53 | HMGLLEMPSERERQVLVLIAEGLSNKEIAARLYLTEGTVKNHAHSLYAKLNVTTRTLAIARARQLGI | -1.37
54 | HMGLLLSQLDKDYQRYIDLADSTFRDNQLAVSRGWYNRALGVKAAEKYPKDQIAEIEKKIAERM | -0.598
